Measured values taken from US20170165365A1 (SYMPHOGEN A S, published 2017).
Residue numbers refer to the chain shown, from its start.

Experiments:
cynomolgus EGFR antigen = molecular target: T1, cynomolgus EGFR antigen (cynomolgus monkey, UniProt A0A2K5WK39 25-645); assay: ELISA, coated cy EGFR
T1 construct: In-house antigen; also called cynomolgus antigen
Procedure: (§1) Antibody-antigen binding was measured by ELISA with coated antigens. Human antigens were obtained from Sino Biologicals. All other antigens were produced in-house by transient expression in CHO or HEK293 cells. Chimeric and humanized antibodies, as well as an isotype control antibody, were incubated with the coated antigens at different concentrations. After wash, bound antibodies were detected by HRP-(horse radish peroxidase)-conjugated secondary antibodies.

[1] = molecular target: T2, human EGFR antigen (Sino Biologicals) (human, UniProt P00533 25-645); assay: ELISA, coated hu EGFR
T2 construct: Bought soluble antigen; also called human antigen
Procedure: as §1

[2] = molecular target: T3, human HER2 antigen (Sino Biologicals) (human, UniProt P04626 23-652); assay: ELISA, coated hu HER2
T3 construct: Bought soluble antigen; also called human antigen
Procedure: as §1

human HER4 antigen = molecular target: T4, human HER4 antigen (human, UniProt Q15303 26-649, limits assumed); assay: ELISA, coated hu HER4
T4 construct: Antigen coated for ELISA
T4 sequence (looked up): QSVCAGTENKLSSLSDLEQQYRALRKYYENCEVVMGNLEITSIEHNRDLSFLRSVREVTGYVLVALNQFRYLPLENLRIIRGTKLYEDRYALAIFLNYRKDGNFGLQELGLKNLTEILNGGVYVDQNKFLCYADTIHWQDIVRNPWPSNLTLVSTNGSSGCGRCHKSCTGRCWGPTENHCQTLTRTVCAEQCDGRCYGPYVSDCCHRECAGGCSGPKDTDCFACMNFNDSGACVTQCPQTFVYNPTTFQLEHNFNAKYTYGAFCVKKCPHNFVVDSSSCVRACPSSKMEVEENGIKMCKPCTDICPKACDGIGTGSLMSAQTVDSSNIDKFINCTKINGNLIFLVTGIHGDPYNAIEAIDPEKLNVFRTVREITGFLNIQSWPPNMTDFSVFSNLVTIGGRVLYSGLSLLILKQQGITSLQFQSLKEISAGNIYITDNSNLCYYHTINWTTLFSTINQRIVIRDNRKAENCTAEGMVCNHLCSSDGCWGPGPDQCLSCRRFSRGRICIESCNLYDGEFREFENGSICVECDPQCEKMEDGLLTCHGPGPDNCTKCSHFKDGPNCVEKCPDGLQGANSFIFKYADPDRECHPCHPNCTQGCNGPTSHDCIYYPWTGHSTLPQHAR
Procedure: as §1

mouse EGFR antigen = molecular target: T5, mouse EGFR antigen (mouse, UniProt Q01279 25-647, limits assumed); assay: ELISA, coated mu EGFR
T5 construct: In-house antigen coated for ELISA; also called mouse antigen; murine EGFR
Procedure: as §1

mouse HER2 antigen = molecular target: T6, mouse HER2 antigen (mouse, UniProt P70424 23-653, limits assumed); assay: ELISA, coated mu HER2
T6 construct: In-house antigen coated for ELISA; also called mouse antigen; murine HER2
T6 sequence (P70424 23-653 limits assumed): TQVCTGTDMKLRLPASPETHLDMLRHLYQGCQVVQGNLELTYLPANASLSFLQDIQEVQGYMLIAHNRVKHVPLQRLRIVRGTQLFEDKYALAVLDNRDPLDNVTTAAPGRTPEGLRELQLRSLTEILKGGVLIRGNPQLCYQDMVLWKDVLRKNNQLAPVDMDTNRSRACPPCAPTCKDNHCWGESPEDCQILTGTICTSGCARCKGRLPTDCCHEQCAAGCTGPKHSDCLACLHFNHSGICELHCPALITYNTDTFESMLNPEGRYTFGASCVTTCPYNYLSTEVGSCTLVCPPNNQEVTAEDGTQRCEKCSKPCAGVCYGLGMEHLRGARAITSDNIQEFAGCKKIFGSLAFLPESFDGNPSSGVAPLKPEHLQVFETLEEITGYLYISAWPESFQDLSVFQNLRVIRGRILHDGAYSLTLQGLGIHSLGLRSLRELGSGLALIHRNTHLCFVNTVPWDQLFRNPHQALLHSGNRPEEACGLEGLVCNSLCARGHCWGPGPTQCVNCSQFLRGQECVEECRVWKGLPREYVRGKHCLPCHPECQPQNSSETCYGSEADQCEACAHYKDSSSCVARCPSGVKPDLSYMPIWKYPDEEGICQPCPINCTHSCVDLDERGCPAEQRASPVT
Procedure: as §1

mouse HER3 antigen = molecular target: T7, mouse HER3 antigen (mouse, UniProt Q61526 20-641, limits assumed); assay: ELISA, coated mu HER3
T7 construct: In-house antigen coated for ELISA; also called mouse antigen; murine HER3
T7 sequence (Q61526 20-641 limits assumed): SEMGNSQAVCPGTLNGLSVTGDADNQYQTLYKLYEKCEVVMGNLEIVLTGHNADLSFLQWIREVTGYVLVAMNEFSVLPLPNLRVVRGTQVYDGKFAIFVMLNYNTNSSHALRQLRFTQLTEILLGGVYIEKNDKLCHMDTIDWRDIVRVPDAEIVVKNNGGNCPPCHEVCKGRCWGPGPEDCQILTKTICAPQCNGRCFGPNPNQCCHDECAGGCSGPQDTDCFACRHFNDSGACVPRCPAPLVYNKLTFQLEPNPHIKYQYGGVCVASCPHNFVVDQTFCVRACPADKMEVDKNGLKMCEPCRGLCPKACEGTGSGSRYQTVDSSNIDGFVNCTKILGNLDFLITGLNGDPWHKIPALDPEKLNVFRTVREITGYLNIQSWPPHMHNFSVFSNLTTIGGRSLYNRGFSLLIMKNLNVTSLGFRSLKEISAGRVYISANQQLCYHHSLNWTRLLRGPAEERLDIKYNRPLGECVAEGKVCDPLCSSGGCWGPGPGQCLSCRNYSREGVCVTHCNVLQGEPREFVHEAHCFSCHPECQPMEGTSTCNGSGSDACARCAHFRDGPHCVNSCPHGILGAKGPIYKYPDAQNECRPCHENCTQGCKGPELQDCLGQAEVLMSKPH
Procedure: as §1

murine HER4 antigen = molecular target: T8, murine HER4 antigen (mouse, UniProt Q61527 26-652, limits assumed); assay: ELISA, coated mu HER4
T8 construct: In-house antigen coated for ELISA; also called mouse HER4
T8 sequence (looked up): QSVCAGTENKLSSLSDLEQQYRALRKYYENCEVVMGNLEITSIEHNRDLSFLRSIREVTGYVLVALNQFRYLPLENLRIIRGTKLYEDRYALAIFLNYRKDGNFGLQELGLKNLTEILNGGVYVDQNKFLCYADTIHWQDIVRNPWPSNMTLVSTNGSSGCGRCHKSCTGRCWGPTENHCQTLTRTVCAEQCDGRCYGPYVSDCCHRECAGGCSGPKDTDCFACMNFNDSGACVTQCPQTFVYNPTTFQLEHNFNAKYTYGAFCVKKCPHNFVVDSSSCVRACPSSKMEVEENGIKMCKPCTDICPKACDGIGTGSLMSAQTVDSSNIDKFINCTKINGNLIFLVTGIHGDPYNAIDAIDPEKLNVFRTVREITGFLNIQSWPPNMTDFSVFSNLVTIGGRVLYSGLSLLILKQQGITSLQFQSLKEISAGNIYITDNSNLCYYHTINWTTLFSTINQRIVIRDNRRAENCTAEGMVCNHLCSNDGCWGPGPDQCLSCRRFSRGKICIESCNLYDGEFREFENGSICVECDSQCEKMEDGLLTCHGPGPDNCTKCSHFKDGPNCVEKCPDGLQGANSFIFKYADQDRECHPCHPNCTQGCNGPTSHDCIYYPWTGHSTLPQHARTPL
Procedure: as §1

[3] = molecular target: T9, human HER3 antigen (Sino Biologicals) (human, UniProt P21860 20-643); assay: SPR (ProteOn XPR36), IgG captured by anti-human Fc, soluble monovalent antigen, 1:1 fit
T9 construct: Bought soluble antigen; also called human antigen
Procedure: (§2) Kinetic binding analysis of the purified humanized variants was performed on a ProteOn™ XPR36 biosensor (BioRad, USA) employing an IgG capture assay as described by Canziani et al. (Anal. Biochem. (2004) 325:301-307) that allows for measurement of antibody affinities of whole IgG molecules against soluble antigen under monovalent conditions. Briefly, approximately 5000 resonance units (RU) of a monoclonal mouse anti-human IgG Fc antibody (GE Healthcare, Denmark) was conjugated to a GLC chip surface (BioRad, USA) according to the manufacturer's instructions, followed by capture of individual antibodies of the invention or a negative control on the anti-Fc sensor surface. […] Next, 250 μl monovalent antigen (Sino Biologicals) was injected at a flow rate of 50 μl/min in serial threefold dilutions from 100 nM stock to generate response curves. The chip surface was regenerated between cycles by stripping the captured antibody/antigen complexes off the surface with a 10-second injection of 3 M MgCl₂ (GE Healthcare, Denmark) repeated three times. Finally, binding responses were fitted to a Langmuir 1:1 binding model for calculation of the on-rate (kon or ka), off-rate (koff or kd) and affinity (KD) constants using double referencing.

cynomolgus HER3 antigen [4] = molecular target: T10, cynomolgus HER3 antigen (cynomolgus monkey, UniProt G7PIG5 20-643); assay: as above
T10 construct: In-house antigen; also called cynomolgus antigen
T10 sequence (G7PIG5 entry or part of it): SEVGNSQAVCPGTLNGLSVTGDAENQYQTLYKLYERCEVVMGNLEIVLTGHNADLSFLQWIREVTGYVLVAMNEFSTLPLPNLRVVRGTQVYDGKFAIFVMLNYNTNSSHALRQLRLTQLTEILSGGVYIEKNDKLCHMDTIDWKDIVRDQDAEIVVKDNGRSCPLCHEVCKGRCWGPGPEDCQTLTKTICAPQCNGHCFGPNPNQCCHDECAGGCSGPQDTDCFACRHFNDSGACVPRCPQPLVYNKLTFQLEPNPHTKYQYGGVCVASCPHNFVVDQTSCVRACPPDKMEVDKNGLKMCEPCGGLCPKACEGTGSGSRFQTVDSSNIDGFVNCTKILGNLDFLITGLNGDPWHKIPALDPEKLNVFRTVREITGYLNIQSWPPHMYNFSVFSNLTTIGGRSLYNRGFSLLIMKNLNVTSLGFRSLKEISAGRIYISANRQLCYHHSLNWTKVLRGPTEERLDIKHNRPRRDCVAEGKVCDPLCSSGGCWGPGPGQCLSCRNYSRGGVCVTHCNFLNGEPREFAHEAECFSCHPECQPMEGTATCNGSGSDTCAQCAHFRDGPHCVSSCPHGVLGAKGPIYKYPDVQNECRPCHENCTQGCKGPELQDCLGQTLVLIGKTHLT
Procedure: as §2

cynomolgus HER3 antigen [5] = molecular target: T10, cynomolgus HER3 antigen; assay: ELISA, coated cy HER3
Procedure: as §1

[6] = molecular target: T9, human HER3 antigen (Sino Biologicals); assay: ELISA, coated hu HER3
Procedure: as §1

B1: chimeric anti-HER3 antibody 5038 (antibody, V domains shown)
VH: EVKLVESGPGLVKPSQSLSLTCSVTGYSITSGFYWTWIRQFPGNKLEWMGFISYDGSNNYNPSLKNRISITRDTSKNQFFLKLNSVTTEDTATYYCARGGGYYGNLFDYWGQGTTLTVS
VL: DIVMTQTTSSLSASLGDRVTISCRPSQDISNYVNWFQQKPGGTVKLLIFHTSRLHSGVPSRFSGSGSGTDYSLTISTLEQEDIAIYFCQQGITLPWTFGGGTKLEIKR
notes: light chain entry is full length
Cynomolgus EGFR antigen
  binding result: no binding (tested: 40 nM)
[1]
  binding result: no binding (tested: 40 nM)
[2]
  binding result: no binding (tested: 40 nM)
Human HER4 antigen
  binding result: no binding (tested: 40 nM)
Mouse EGFR antigen
  binding result: no binding (tested: 40 nM)
Mouse HER2 antigen
  binding result: no binding (tested: 40 nM)
Mouse HER3 antigen
  binding result: no binding (tested: 40 nM)
Murine HER4 antigen
  binding result: no binding (tested: 40 nM)
[3]
  Kd: 1.6 nM
  koff: 0.00048 s⁻¹
  kon: 300000 M⁻¹ s⁻¹
Cynomolgus HER3 antigen [4]
  Kd: 0.89 nM
  koff: 0.00041 s⁻¹
  kon: 460000 M⁻¹ s⁻¹

B2: humanized anti-HER3 antibody 10738 (antibody, V domains shown)
VH: QVQLQESGPGLVKPSQTLSLTCTVSGYSITSGFYWTWIRQHPGKGLEWMGFISYSGSNNYNPSLKNRITISVDTSKNQFSLKLSSVTAADTAVYYCARGGGYYGNLFDYWGQGTLVTVSS
VL: DIQMTQSPSSLSASVGDRVTITCRPSQDISNYVNWFQQKPGKAVKLLIFHTSRLHSGVPSRFSGSGSGTDFTFTISSLQPEDIAIYYCQQGITLPWTFGQGTKVEIK
Cynomolgus EGFR antigen
  binding result: no binding (tested: 40 nM)
[1]
  binding result: no binding (tested: 40 nM)
[2]
  binding result: no binding (tested: 40 nM)
Human HER4 antigen
  binding result: no binding (tested: 40 nM)
Mouse EGFR antigen
  binding result: no binding (tested: 40 nM)
Mouse HER2 antigen
  binding result: no binding (tested: 40 nM)
Mouse HER3 antigen
  binding result: no binding (tested: 40 nM)
Murine HER4 antigen
  binding result: no binding (tested: 40 nM)
Cynomolgus HER3 antigen [4]
  Kd: 0.54 nM

B3: humanized anti-HER3 antibody 10810 (antibody, V domains shown)
VH: B2 VH with K44N, M49I, I68V, V93T
VL: B2 VL with V44P, F73L, I85T
Cynomolgus EGFR antigen
  binding result: no binding (tested: 40 nM)
[1]
  binding result: no binding (tested: 40 nM)
[2]
  binding result: no binding (tested: 40 nM)
Human HER4 antigen
  binding result: no binding (tested: 40 nM)
Mouse EGFR antigen
  binding result: no binding (tested: 40 nM)
Mouse HER2 antigen
  binding result: no binding (tested: 40 nM)
Mouse HER3 antigen
  binding result: no binding (tested: 40 nM)
Murine HER4 antigen
  binding result: no binding (tested: 40 nM)
[3]
  Kd: 1.1 nM
  koff: 0.0002 s⁻¹
  kon: 190000 M⁻¹ s⁻¹
Cynomolgus HER3 antigen [4]
  Kd: 0.71 nM
  koff: 0.00034 s⁻¹
  kon: 470000 M⁻¹ s⁻¹

B4: chimeric anti-HER3 antibody 5082 (antibody, V domains shown)
VH: EVQLKESGPGLVKPSQSLSLTCSVTGYSITSAYYWNWIRQFPGNKVEWMGYIGYDGRNTYNPSLKNRISITRDTSKNQFFLKLNSLTTEDTATYYCSREGDYGYSDYWGQGTTLTVS
VL: DIVMTQATSSLSASLGDRVTVSCRASQDINNYLNWYQQKPDGTVKLLIYYTSRLQSGVPSRFSGSGSGIDYSLTISNLEQEDFVTYFCQQSETLPWTFGGGTKLELKR
notes: as for B1
Cynomolgus EGFR antigen
  binding result: no binding (tested: 40 nM)
[1]
  binding result: no binding (tested: 40 nM)
[2]
  binding result: no binding (tested: 40 nM)
Human HER4 antigen
  binding result: no binding (tested: 40 nM)
Mouse EGFR antigen
  binding result: no binding (tested: 40 nM)
Mouse HER2 antigen
  binding result: no binding (tested: 40 nM)
Mouse HER3 antigen
  binding result: no binding (tested: 40 nM)
Murine HER4 antigen
  binding result: no binding (tested: 40 nM)
[3]
  Kd: 0.08 nM
  koff: 7.3e-05 s⁻¹
  kon: 910000 M⁻¹ s⁻¹
Cynomolgus HER3 antigen [4]
  Kd: 0.098 nM
  koff: 0.00016 s⁻¹
  kon: 1.7e+06 M⁻¹ s⁻¹

B5: humanized anti-HER3 antibody 11006 (antibody, V domains shown)
VH: QVQLQESGPGLVKPSQTLSLTCTVSGYSITSAYYWNWIRQHPGKGVEWMGYIGYSGRNTYNPSLKNRVTISRDTSKNQFSLKLSSVTAADTAVYYCSREGDYGYSDYWGQGTLVTVSS
VL: DIQMTQSPSSLSASVGDRVTVTCRASQDTNNYLNWYQQKPGKAVKLLIYYTSRLQSGVPSRFSGSGSGTDFTLTISSLQPEDFATYFCQQSETLPWTFGQGTKVEIK
Cynomolgus EGFR antigen
  binding result: no binding (tested: 40 nM)
[1]
  binding result: no binding (tested: 40 nM)
[2]
  binding result: no binding (tested: 40 nM)
Human HER4 antigen
  binding result: no binding (tested: 40 nM)
Mouse EGFR antigen
  binding result: no binding (tested: 40 nM)
Mouse HER2 antigen
  binding result: no binding (tested: 40 nM)
Mouse HER3 antigen
  binding result: no binding (tested: 40 nM)
Murine HER4 antigen
  binding result: no binding (tested: 40 nM)
[3]
  koff: < 2e-06 s⁻¹
  kon: 740000 M⁻¹ s⁻¹
Cynomolgus HER3 antigen [4]
  Kd: 0.059 nM
  koff: 8.7e-05 s⁻¹
  kon: 1.5e+06 M⁻¹ s⁻¹

B6: humanized anti-EGFR antibody 10460 (antibody, V domains shown)
VH: EVQLVESGGGLVQPGGSLRLSCAASGFAFSYSDMSWVRQAPGKRLEWVSYMSSAGDVTFYSDTVKGRFTISRDNAKNSLYLQVNSLRAEDTAVYYCVRHRDVAIDYWGQGTTVTVSS
VL: DVVMTQSPLSLPVTLGQPASISCRSSQSLVHSNGNTYLHWYQQRPGQSPRLLIYKVSNRFSGVPDRFSGSGSGTDFTLKISRVEAEDVGVYFCSQSTHVPTFGGGTKLEIK
Cynomolgus HER3 antigen [5]
  binding result: no binding (tested: 40 nM)
[2]
  binding result: no binding (tested: 40 nM)
[6]
  binding result: no binding (tested: 40 nM)
Human HER4 antigen
  binding result: no binding (tested: 40 nM)
Mouse EGFR antigen
  binding result: no binding (tested: 40 nM)
Mouse HER2 antigen
  binding result: no binding (tested: 40 nM)
Mouse HER3 antigen
  binding result: no binding (tested: 40 nM)
Murine HER4 antigen
  binding result: no binding (tested: 40 nM)
